Here are results for 1 molecule from patent US20170158765A1 (Merck Sharp & Dohme, published 2017).

The test has as its target T1, human ILT5 on the surface of peripheral blood cells (PBMC subsets, APCs) (human, UniProt O75022 24-631).
T1 construct: whole, on cells; also called surface ILT5; Immunoglobulin-like transcript 5
In words: flow cytometry, staining of human PBMCs. The source says:
Peripheral blood mononuclear cells (PBMCs) from healthy human blood donors were stained with a murine monoclonal antibody (TRX585) comprising a heavy chain variable region comprising the amino acid sequence of SEQ ID NO: 2 or SEQ ID NO: 3, and a light chain variable region comprising the amino acid sequence of SEQ ID NO: 1. Sequencing analysis of the heavy chain variable region was inconclusive as to whether the first amino acid residue was D or E. As the two amino acids are very similar and the first residue is not in a CDR, it is highly likely that VH with D or E at the first position would have very similar if not the same ILT5-binding properties. PBMCs were also stained with antibodies specific for defined hematopoietic cell lineages and analyzed for ILT5 expression by flow cytometry.
(A flow cytometer gives signals particle by particle.)

T1 sequence (O75022 24-631): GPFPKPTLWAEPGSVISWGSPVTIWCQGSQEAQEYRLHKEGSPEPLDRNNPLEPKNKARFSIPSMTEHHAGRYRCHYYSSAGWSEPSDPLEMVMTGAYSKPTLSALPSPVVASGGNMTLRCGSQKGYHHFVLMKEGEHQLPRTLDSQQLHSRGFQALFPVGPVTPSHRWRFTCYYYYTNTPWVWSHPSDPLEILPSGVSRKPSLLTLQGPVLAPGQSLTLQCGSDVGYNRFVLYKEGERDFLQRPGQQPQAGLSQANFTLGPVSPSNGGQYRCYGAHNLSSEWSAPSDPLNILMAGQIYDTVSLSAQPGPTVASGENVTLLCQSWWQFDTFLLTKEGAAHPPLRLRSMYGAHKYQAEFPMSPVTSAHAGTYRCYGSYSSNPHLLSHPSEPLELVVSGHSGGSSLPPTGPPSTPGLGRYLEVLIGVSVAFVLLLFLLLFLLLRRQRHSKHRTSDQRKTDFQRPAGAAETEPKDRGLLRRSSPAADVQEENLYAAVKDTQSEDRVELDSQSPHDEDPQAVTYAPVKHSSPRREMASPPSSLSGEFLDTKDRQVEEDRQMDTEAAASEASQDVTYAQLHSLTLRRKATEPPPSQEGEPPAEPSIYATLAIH

B1: TRX585 mouse anti-human ILT5 monoclonal antibody (8G6 mAb, IgG1, kappa) (antibody, V domains shown)
VH: DVQLQESGPGLVKPSQSLFLTCSVTGYSISSSYYWNWIRQFPGNKLEWMGYISFDGSNNYNPSLKNRISITRDTSKNQFFLKLNSVTTEDTATYYCAREKENYYGSSFYYFDYWGLGTSLTVSS
VL: DIQMTQSPASLSVSVGETVTITCRASENIYSNLAWYQQKQGKSPQVLVYAATNLADGVPSRFSGSGSGTQFSLKINSLQSEDFGNYFCQHFWRIPWTFGGGTKLEIK
notes: Murine IgG1, kappa purified from hybridoma supernatant; also called TRX585 antibody; TRX585 mAb
As to B1, the binding result is recorded as “binds”.
